Source: PMC4961446, “Dual Role of a Biosynthetic Enzyme, CysK, in Contact Dependent Growth Inhibition in Bacteria” (PLoS ONE, 2016)
Where “and” joins values, the source holds several entries; their conditions need not be identical. Equal values may be shown once.

How the values were obtained:
[1] = target: SpoIISB (Bacillus subtilis) (UniProt O34800); settings: cited from earlier work
[2] = target: CdiA-CT^(M)/CysK complex (heterotetramer) (Escherichia coli strain 536 (UPEC536) | E. coli K12) (UniProt P0ABK5); assay: SPR; Biacore 3000, 30°C; CdiA-CT^(M) immobilized on a separate CM5 chip (760 RU), first 0.6 μM CysK (dimer) passed over it to form the CdiA-CT^(M)/CysK complex, then CdiI injected at 2.5-40 nM; local fitting, separate ka/kd model
[3] = target: CdiA-CT^536(H3193A) (Escherichia coli strain 536 (UPEC536)); assay: AUC; sedimentation velocity, 40,000 rpm, 15°C, 20 mM HEPES pH 7.5, 250 mM NaCl; 10, 20 and 30 μM; c(s) model in SEDFIT; complexes mixed and incubated at 4°C for 1 h
[4] = target: CdiA-CT^536(H3193A) (Escherichia coli strain 536 (UPEC536)); assay: SPR; Biacore 3000, 30°C; CdiA-CT^(M) immobilized on CM5 chip (723 RU); 10 mM HEPES pH 7.5, 150 mM NaCl, 20 μl/min; analyte CdiI 5-40 nM (1:1 Langmuir model) or CysK 0.4-6.4 μM dimer
[5] = target: CdiA-CT^(M)/CysK complex (heterotetramer) (Escherichia coli strain 536 (UPEC536) | E. coli K12) (UniProt P0ABK5); assay: ITC; 30°C, 20 mM HEPES pH 7.5, 150 mM NaCl; CdiA-CT^(M) or its preformed complex in the sample cell, CdiI or CysK (dimer concentration) in the syringe; one-site model for CdiA-CT^(M)/CdiI, two binding site model where CysK is involved; apparent enthalpy
[6] = target: CdiA-CT^536(H3193A) (Escherichia coli strain 536 (UPEC536)); assay: as above
[7] = target: RelE (Escherichia coli) (UniProt P0C077); settings: cited from earlier work
[8] = target: T1, CysK (Escherichia coli, UniProt P0ABK5); assay: ITC
T1 chain: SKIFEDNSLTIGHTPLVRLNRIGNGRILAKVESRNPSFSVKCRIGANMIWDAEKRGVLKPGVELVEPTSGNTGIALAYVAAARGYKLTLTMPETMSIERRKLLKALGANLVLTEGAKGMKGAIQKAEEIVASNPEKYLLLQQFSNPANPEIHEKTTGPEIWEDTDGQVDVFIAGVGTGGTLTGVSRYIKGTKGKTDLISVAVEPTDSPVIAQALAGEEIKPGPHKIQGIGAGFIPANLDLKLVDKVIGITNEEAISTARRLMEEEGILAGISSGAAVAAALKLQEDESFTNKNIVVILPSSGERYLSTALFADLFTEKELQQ

[9] = target: the molecule itself; assay: AUC; sedimentation velocity, 40,000 rpm, 15°C, 20 mM HEPES pH 7.5, 250 mM NaCl; 10, 20 and 30 μM; c(s) model in SEDFIT; complexes mixed and incubated at 4°C for 1 h
[10] = target: CdiA-CT^(M)/CdiI complex (heterodimer) (Escherichia coli strain 536 (UPEC536)); assay: as above; settings: scale: CysK chain per CdiA-CT^(M)/CdiI heterodimer
[11] = target: CdiA-CT^(M)/CdiI complex (heterodimer) (Escherichia coli strain 536 (UPEC536)); assay: ITC; 30°C, 20 mM HEPES pH 7.5, 150 mM NaCl; CdiA-CT^(M) or its preformed complex in the sample cell, CdiI or CysK (dimer concentration) in the syringe; one-site model for CdiA-CT^(M)/CdiI, two binding site model where CysK is involved; apparent enthalpy
[12] = target: the molecule itself; assay: SEC; analytical SEC, Superdex 200 Increase 10/300 GL, 20 mM HEPES pH 7.5, 250 mM NaCl, ~15°C; samples 10, 20 and 30 μM; for complexes purified proteins mixed in varying molar ratios and incubated at 4°C for 1 h; fractions analysed by SDS-PAGE

Sequence of CdiA-CT^(M)/CdiI complex (heterodimer) (Escherichia coli strain 536 (UPEC536)) (Q0T964 whole entry, one chain of several): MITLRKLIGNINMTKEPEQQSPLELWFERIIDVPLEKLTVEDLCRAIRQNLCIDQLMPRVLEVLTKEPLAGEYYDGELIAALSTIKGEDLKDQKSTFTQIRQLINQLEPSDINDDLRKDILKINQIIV
Sequence of SpoIISB (Bacillus subtilis) (O34800 whole entry): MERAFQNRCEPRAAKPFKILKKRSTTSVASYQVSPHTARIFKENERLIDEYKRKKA
Sequence of RelE (Escherichia coli) (P0C077 whole entry): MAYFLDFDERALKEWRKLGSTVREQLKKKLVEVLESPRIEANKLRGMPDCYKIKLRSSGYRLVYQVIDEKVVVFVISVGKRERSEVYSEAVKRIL

**Q.** Which Kd [1] does the source give for SpoIISA (from UniProt O34853) here?
**A.** The Kd was 0.46 nM.

**Q.** With CdiI (natural protein) as the molecule, how does the Kd [2] read?
**A.** Its Kd is 0.3 nM.

**Q.** And the koff [2]?
**A.** The koff was 0.0005 s⁻¹.

**Q.** And the kon [2]?
**A.** The kon was 1.5e+06 M⁻¹ s⁻¹.

**Q.** And the stoichiometry N (CdiI per CdiA-CT^(M) (1:1)) [3]?
**A.** Its stoichiometry N (CdiI per CdiA-CT^(M) (1:1)) is 1.

**Q.** And the Kd [4]?
**A.** The Kd was 12.8 nM.

**Q.** And the koff [4]?
**A.** The koff was 0.065 s⁻¹.

**Q.** What about the kon [4] of the same molecule?
**A.** Its kon is 5.1e+06 M⁻¹ s⁻¹.

**Q.** What about the KD1, first site [5] of the same molecule?
**A.** The KD1, first site was 1.3 nM.

**Q.** And the KD2, second site [5]?
**A.** The KD2, second site was 1.1 nM.

**Q.** And the dH, first site [5]?
**A.** Its dH, first site is -26.7 kcal/mol.

**Q.** What about the dH, second site [5] of the same molecule?
**A.** Its dH, second site is -24.2 kcal/mol.

**Q.** And the stoichiometry N [5]?
**A.** Its stoichiometry N is 1.89.

**Q.** What about the Kd [6] of the same molecule?
**A.** The Kd was 26.4 nM.

**Q.** What about the dH [6] of the same molecule?
**A.** The dH was -29 kcal/mol.

**Q.** What about the stoichiometry N [6] of the same molecule?
**A.** Its stoichiometry N is 0.993.

**Q.** Which Kd [7] does the source give for RelB (from UniProt P0C079) here?
**A.** Its Kd is 0.33 nM.

B1: CdiA-CT CT (protein)
chain: VENNALSLVARGCAVAAPCRTKVAEQLLEIGAKAGMAGLAGAAVKDMADRMTSDELEHLITLQMMGNDEITTKYLSSLHDKYGSGAASNPNIGKDLTDAEKVELGGSGSGTGTPPPSENDPKQQNEKTVDKLNQKQESAIKKIDNTIKNALKDHDIIGTLKDMDGKPVPKENGGYWDHMQEMQNTLRGLRNHADTLKNVNNPEAQAAYGRATDAINKIESALKGYGI
**Q.** Which Kd [8] does the source give for B1 here?
**A.** The Kd was 79.3 nM and 89.2 nM.

B2: CysK (O-acetylserine sulfyhydrylase) (enzyme, E. coli K12, UniProt P0ABK5 1-323, looked up)
chain: MSKIFEDNSLTIGHTPLVRLNRIGNGRILAKVESRNPSFSVKCRIGANMIWDAEKRGVLKPGVELVEPTSGNTGIALAYVAAARGYKLTLTMPETMSIERRKLLKALGANLVLTEGAKGMKGAIQKAEEIVASNPEKYLLLQQFSNPANPEIHEKTTGPEIWEDTDGQVDVFIAGVGTGGTLTGVSRYIKGTKGKTDLISVAVEPTDSPVIAQALAGEEIKPGPHKIQGIGAGFIPANLDLKLVDKVIGITNEEAISTARRLMEEEGILAGISSGAAVAAALKLQEDESFTNKNIVVILPSSGERYLSTALFADLFTEKELQQ
notes: CysK (O-acetylserine sulfhydrylase), amplified from E. coli K12 genomic DNA, in pNIC28-Bsa4; Cloned between NcoI/XhoI of pNIC28-Bsa4; also called CysK dimer; source: E. coli BL21(DE3), purified (Co-NTA, gel filtration)
**Q.** Which “stoichiometry N” value [9] does the source give for B2 here?
**A.** Its value is 2.

**Q.** What about the stoichiometry N [10] of the same molecule?
**A.** Its stoichiometry N is 1.

**Q.** And the stoichiometry N (CysK chain per CdiA-CT^(M) chain (2:2)) [3]?
**A.** The stoichiometry N (CysK chain per CdiA-CT^(M) chain (2:2)) was 1.

**Q.** And the Kd [4]?
**A.** Its Kd is 32 nM.

**Q.** What about the koff [4] of the same molecule?
**A.** The koff was 0.00014 s⁻¹.

**Q.** And the kon [4]?
**A.** Its kon is 6200 M⁻¹ s⁻¹.

**Q.** And the KD1, first site [11]?
**A.** The KD1, first site was 12 nM.

**Q.** And the KD2, second site [11]?
**A.** The KD2, second site was 13.4 nM.

**Q.** What about the dH, first site [11] of the same molecule?
**A.** The dH, first site was -11 kcal/mol.

**Q.** What about the dH, second site [11] of the same molecule?
**A.** The dH, second site was -26.7 kcal/mol.

**Q.** And the stoichiometry N [11]?
**A.** Its stoichiometry N is 0.512.

**Q.** And the KD1, first site [6]?
**A.** Its KD1, first site is 79.3 nM.

**Q.** And the KD2, second site [6]?
**A.** Its KD2, second site is 89.2 nM.

**Q.** What about the dH, first site [6] of the same molecule?
**A.** The dH, first site was -5.62 kcal/mol.

**Q.** What about the dH, second site [6] of the same molecule?
**A.** The dH, second site was -20.2 kcal/mol.

**Q.** And the stoichiometry N [6]?
**A.** Its stoichiometry N is 0.494.

**Q.** And the “stoichiometry N” value [12]?
**A.** The value was 2.
